PMC7736860

Legend:
Test in all cases: EMSA
Details in all cases: Chemiluminescent EMSA kit (Beyotime); buffer, salt, pH and temperature not stated
[1] = molecular target: T1, BTF3 (Arabidopsis thaliana) (UniProt Q9SMW7)
T1 sequence: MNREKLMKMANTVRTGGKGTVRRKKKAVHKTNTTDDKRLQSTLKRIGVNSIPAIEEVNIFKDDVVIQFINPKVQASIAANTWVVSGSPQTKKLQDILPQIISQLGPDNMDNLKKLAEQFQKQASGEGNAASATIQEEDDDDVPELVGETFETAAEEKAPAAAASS

[2] = molecular target: T2, bZIP1664 (Arabidopsis thaliana) (UniProt F4I978)
T2 sequence: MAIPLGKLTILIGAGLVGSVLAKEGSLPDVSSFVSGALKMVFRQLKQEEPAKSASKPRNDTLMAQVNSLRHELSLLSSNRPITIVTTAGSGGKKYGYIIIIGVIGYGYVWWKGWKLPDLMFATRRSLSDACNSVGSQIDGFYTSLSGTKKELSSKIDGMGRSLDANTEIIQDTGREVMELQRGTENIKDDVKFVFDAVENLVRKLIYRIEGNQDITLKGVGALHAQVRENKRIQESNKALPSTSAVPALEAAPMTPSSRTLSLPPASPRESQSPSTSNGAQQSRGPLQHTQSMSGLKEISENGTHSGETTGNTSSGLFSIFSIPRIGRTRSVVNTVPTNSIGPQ

[3] = molecular target: T3, TEM1 (TEMPRANILLO1) (Arabidopsis thaliana) (UniProt Q9C6M5)
T3 sequence: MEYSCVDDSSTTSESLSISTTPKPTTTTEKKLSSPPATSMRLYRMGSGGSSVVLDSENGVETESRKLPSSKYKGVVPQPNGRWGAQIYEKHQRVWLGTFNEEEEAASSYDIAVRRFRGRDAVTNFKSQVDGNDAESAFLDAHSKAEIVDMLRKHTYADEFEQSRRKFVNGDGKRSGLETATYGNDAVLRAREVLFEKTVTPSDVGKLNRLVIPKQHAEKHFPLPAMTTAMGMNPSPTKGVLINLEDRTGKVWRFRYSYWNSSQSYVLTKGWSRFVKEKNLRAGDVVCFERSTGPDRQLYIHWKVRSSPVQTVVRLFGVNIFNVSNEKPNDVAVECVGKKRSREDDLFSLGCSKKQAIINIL

[4] = molecular target: T4, bHLH106 (Arabidopsis thaliana) (UniProt O80674)
T4 sequence: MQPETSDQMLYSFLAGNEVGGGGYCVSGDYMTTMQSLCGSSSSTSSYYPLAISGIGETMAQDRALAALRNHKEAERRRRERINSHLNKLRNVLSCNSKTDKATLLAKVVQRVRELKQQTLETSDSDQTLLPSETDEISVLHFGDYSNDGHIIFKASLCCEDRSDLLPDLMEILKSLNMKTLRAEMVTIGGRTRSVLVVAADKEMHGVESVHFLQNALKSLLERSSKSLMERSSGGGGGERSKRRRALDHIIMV

[5] = molecular target: T5, HAT1 (Arabidopsis thaliana) (UniProt P46600)
T5 sequence: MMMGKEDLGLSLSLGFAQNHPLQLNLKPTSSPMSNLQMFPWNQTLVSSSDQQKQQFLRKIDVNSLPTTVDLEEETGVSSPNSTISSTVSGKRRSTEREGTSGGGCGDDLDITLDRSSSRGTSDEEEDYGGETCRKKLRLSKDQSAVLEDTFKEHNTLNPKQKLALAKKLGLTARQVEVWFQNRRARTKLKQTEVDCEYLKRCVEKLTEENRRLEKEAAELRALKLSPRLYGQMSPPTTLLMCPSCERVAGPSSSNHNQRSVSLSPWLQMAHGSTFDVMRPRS

Measured: binding

GTGAAACAGCGTGTGTTATGCACAATAATGGATTCCCGAAGTGGAAGGGTACATTTGTCCTTTCGAGATCAATTTCTCGATACAGTAAAAATGGGCCATTGTTGTTTACTTTTCCTTGGTGTTAAAACAATAATGTAGTGCCCCCACTTAGATATTTTTTTGCTAGGTTTTGGCTCCAACCCAAGAAAAATTCGTTCGGTGACTAATAATAATCGCTGACCCCGA (double strand)
binds: all assays above
